# Test results taken from doi:10.1101/2021.09.17.460839.
# Where a chain is given by its changes, count along the chain named.
# Tests used:
# [1] = molecular target: T1, Rv0792c R49A R49A (Mycobacterium tuberculosis) (UniProt O86331); assay: ALISA
# T1 sequence: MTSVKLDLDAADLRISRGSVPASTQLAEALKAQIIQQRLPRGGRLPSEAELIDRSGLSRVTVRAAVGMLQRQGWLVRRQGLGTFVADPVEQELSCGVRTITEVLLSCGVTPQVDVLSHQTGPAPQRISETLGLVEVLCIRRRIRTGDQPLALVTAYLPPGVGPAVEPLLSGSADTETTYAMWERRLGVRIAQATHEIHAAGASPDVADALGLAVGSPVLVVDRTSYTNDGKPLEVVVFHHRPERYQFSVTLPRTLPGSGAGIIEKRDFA
# [2] = molecular target: T2, Rv0792c G80D G80D (Mycobacterium tuberculosis) (UniProt O86331); assay: ALISA
# T2 sequence: T1 sequence with A49R, G80D
sequence,measurement,setting,value
TCTAGTCATTCGTCATAATCCCATCTGTTTCTTCCTCCTTCCGT [Rv0792c_2 aptamer (printed Rv0729c_2)],Kd,[1],74 nM
same,Kd,[2],120 nM
